Values of other authors, collected in PMC3209554.

Target: ClpX N domain (Escherichia coli) (UniProt P0A6H1)
UniProt P0A6H1, sequence (P0A6H1 2-56): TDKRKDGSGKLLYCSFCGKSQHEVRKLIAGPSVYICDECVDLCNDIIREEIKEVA

SspB C-terminal tail (from UniProt P0AFZ3)
Kd: 20 µM
